In the Immune Epitope Database (IEDB) one finds Kd data, which are given here for 27 sequences.

Among the targets are HLA-A*02:03; HLA-A*02:06; HLA-A*11:01; HLA-A*31:01; HLA-A*33:01; HLA-A*03:01; HLA-A*68:01.
Common to all, as to experiment: IEDB peptide-MHC binding, purified MHC/competitive/radioactivity; filed as Kd, often an IC50 or EC50 that approximates it; ≥ and ≤ were set here for values at or beyond the usual limits of such assays
Where [1] appears, read: source organism: Dengue virus 1 Brazil/97-11/1997.
The mark [2] stands for this setting: source organism: Dengue virus 3 Martinique/1243/1999.
The mark [3] stands for this setting: source organism: Vaccinia virus WR.
[4] abbreviates: source organism: SARS coronavirus Tor2.
Where [5] appears, read: source organism: Vaccinia virus Copenhagen.

By Kd is commonly meant the concentration at which binding is half-saturated. As to KMFEATARGA, the Kd with HLA-A*02:03 (setting [1]) worked out at 51.1 nM.

For IMTIDLDPV, the Kd worked out at 15.3 nM in the assay with HLA-A*02:03 (setting [2]) and 34.8 nM with HLA-A*02:06 (setting [2]).

Take GLFTSLGKA: the Kd with HLA-A*02:03 (source organism: Dengue virus 4 Dominica/814669/1981) worked out at 10.8 nM.

Consider VQADMGCVV, for which the Kd in the assay with HLA-A*02:06 (source organism: Dengue virus 4 Singapore/8976/1995) is 23.3 nM.

Regarding TIGLSLVASV, the Kd with HLA-A*02:03 (setting [1]) amounted to 12.8 nM.

For the sequence DIALALEQY, the Kd in the assay with HLA-A*11:01 (setting [3]) was at least 77900 nM; in the assay with HLA-A*31:01 (setting [3]), 10.5 µM; with HLA-A*33:01 (setting [3]) it was at least 23.9 µM; with HLA-A*03:01 (setting [3]) it was at least 78000 nM; with HLA-A*68:01 (setting [3]), 364 nM.

Take VQYENLKYSV: the Kd with HLA-A*02:06 (setting [1]) was 31.2 nM.

Turning to TLNVLAWLY, the Kd with HLA-A*11:01 (setting [4]) turned out to be 25 nM; with HLA-A*31:01 (setting [4]) it was 2.72 µM; with HLA-A*33:01 (setting [4]), 7.37 µM; in the assay with HLA-A*03:01 (setting [4]) it was 36.5 nM; in the assay with HLA-A*68:01 (setting [4]) it was 13200 nM.

For the sequence CSRMLDTSEK, the Kd is 1610 nM with HLA-A*11:01 (setting [3]); 1.56 µM in the assay with HLA-A*31:01 (setting [3]); at least 70 µM in the assay with HLA-A*33:01 (setting [3]); 1010 nM with HLA-A*03:01 (setting [3]); 7700 nM in the assay with HLA-A*68:01 (setting [3]).

Consider SMQNCLLRLK, for which the Kd with HLA-A*11:01 (setting [4]) was 17.8 nM; in the assay with HLA-A*31:01 (setting [4]) it was 0.0181 µM; with HLA-A*33:01 (setting [4]) it was 0.725 µM; with HLA-A*03:01 (setting [4]), 9.94 nM; in the assay with HLA-A*68:01 (setting [4]), 1280 nM.

Consider EVRIPVDLVK, for which the Kd in the assay with HLA-A*11:01 (setting [3]) is 1660 nM; with HLA-A*31:01 (setting [3]), 9.02 µM; in the assay with HLA-A*33:01 (setting [3]), 17 µM; in the assay with HLA-A*03:01 (setting [3]) it was at least 64800 nM; with HLA-A*68:01 (setting [3]) it was 656 nM.

Turning to MSRVRISLIY, the Kd with HLA-A*11:01 (setting [3]) worked out at 548 nM; in the assay with HLA-A*31:01 (setting [3]), 3.12 µM; with HLA-A*33:01 (setting [3]), 10.6 µM; with HLA-A*03:01 (setting [3]), 270 nM; with HLA-A*68:01 (setting [3]), 262 nM.

With DTSASEIKDR, the Kd came out at 1130 nM with HLA-A*11:01 (setting [3]); 7.97 µM with HLA-A*31:01 (setting [3]); 0.835 µM in the assay with HLA-A*33:01 (setting [3]); 14800 nM in the assay with HLA-A*03:01 (setting [3]); 17.6 nM with HLA-A*68:01 (setting [3]).

Turning to LMYALEPRK, the Kd with HLA-A*11:01 (setting [3]) was 53.9 nM; in the assay with HLA-A*31:01 (setting [3]), 5.64 µM; in the assay with HLA-A*33:01 (setting [3]) it was at least 25.9 µM; in the assay with HLA-A*03:01 (setting [3]), 5.59 nM; with HLA-A*68:01 (setting [3]), 808 nM.

As to VLFSGVSWT, the Kd in the assay with HLA-A*02:03 (setting [1]) was found to be 60.1 nM.

Regarding MTLDDLAIK, the Kd with HLA-A*11:01 (setting [3]) was found to be 37.1 nM; with HLA-A*31:01 (setting [3]) it was 0.408 µM; with HLA-A*33:01 (setting [3]) it was 2.34 µM; with HLA-A*03:01 (setting [3]) it was 927 nM; with HLA-A*68:01 (setting [3]), 39.8 nM.

On to CANGWIQYDK, for which the Kd in the assay with HLA-A*11:01 (setting [3]) is 599 nM; with HLA-A*31:01 (setting [3]), 0.0736 µM; in the assay with HLA-A*33:01 (setting [3]) it was at least 27 µM; in the assay with HLA-A*03:01 (setting [3]), 888 nM; with HLA-A*68:01 (setting [3]) it was 19.1 nM.

With LVTRKCPQKK, the Kd was 15900 nM with HLA-A*11:01 (setting [3]); at least 70 µM with HLA-A*31:01 (setting [3]); at least 70 µM with HLA-A*33:01 (setting [3]); at least 70100 nM with HLA-A*03:01 (setting [3]); at least 70200 nM with HLA-A*68:01 (setting [3]).

For the sequence NMINKLYGY, the Kd in the assay with HLA-A*11:01 (setting [3]) is 18600 nM; with HLA-A*31:01 (setting [3]) it was at least 37.8 µM; in the assay with HLA-A*33:01 (setting [3]), 14.3 µM; with HLA-A*03:01 (setting [3]), 2560 nM; in the assay with HLA-A*68:01 (setting [3]), at least 31900 nM.

As for HLTKTDKKY, the Kd with HLA-A*11:01 (setting [3]) is 1970 nM; in the assay with HLA-A*31:01 (setting [3]), 9.48 µM; with HLA-A*33:01 (setting [3]), at least 41.9 µM; with HLA-A*03:01 (setting [3]) it was at least 22900 nM; with HLA-A*68:01 (setting [3]) it was 7290 nM.

For the sequence TSTGNYNYK, the Kd was 21.1 nM in the assay with HLA-A*11:01 (setting [4]); 0.151 µM with HLA-A*31:01 (setting [4]); 12.2 µM in the assay with HLA-A*33:01 (setting [4]); 1460 nM with HLA-A*03:01 (setting [4]); 37.2 nM in the assay with HLA-A*68:01 (setting [4]).

Consider VVVGDIIGV, for which the Kd with HLA-A*02:06 (setting [2]) worked out at 4.38 nM.

Regarding ILARRPTPK, the Kd with HLA-A*11:01 (setting [5]) is 46 nM; with HLA-A*31:01 (setting [5]), 1.56 µM; with HLA-A*33:01 (setting [5]) it was at least 67.1 µM; with HLA-A*03:01 (setting [5]), 1.31 nM; in the assay with HLA-A*68:01 (setting [5]) it was 1780 nM.

As to SIHLTKTDK, the Kd with HLA-A*11:01 (setting [3]) was 9.38 nM; with HLA-A*31:01 (setting [3]), 9.44 µM; with HLA-A*33:01 (setting [3]), at least 48.3 µM; with HLA-A*03:01 (setting [3]), 6.74 nM; with HLA-A*68:01 (setting [3]), 140 nM.

As for SLLKETIQK, the Kd with HLA-A*11:01 (setting [5]) is 16.8 nM; with HLA-A*31:01 (setting [5]) it was at least 20 µM; with HLA-A*33:01 (setting [5]), 7.38 µM; in the assay with HLA-A*03:01 (setting [5]) it was 39.6 nM; in the assay with HLA-A*68:01 (setting [5]), 3480 nM.

Take NLKQLPFFYY: the Kd with HLA-A*11:01 (setting [4]) was 5350 nM; in the assay with HLA-A*31:01 (setting [4]), at least 70 µM; with HLA-A*33:01 (setting [4]) it was at least 70 µM; with HLA-A*03:01 (setting [4]) it was at least 36000 nM; with HLA-A*68:01 (setting [4]), at least 10000 nM.

For LSCAVHLIIY, the Kd with HLA-A*11:01 (setting [3]) was at least 61400 nM; in the assay with HLA-A*31:01 (setting [3]), 5.37 µM; with HLA-A*33:01 (setting [3]) it was 3.83 µM; in the assay with HLA-A*03:01 (setting [3]), 10600 nM; with HLA-A*68:01 (setting [3]), 361 nM.
